Reference: publication PMC7782793, “Hydroxamic acid-modified peptide microarrays for profiling isozyme-selective interactions and inhibition of histone deacetylases” (Nature Communications, 2021)
Starred links: 1 amine or outer side, 2 acyl side, 3 side chain; linkers in the order of their positions; H or OH if unused. Non-standard residues stand in square brackets, D forms with d. Primed or numbered codes have the meaning given here. No end group written: not given here. Asuha″ = L-2-amino-8-(hydroxyamino)-8-oxooctanoic acid, O=C(CCCCC[C@H](N[*:1])C(=O)[*:2])NO; Asuha = 2-aminosuberic acid hydroxamate, O=C(CCCCC[C@H](N[*:1])C(=O)[*:2])NO[*:3]

What was measured:
Experiment in all cases: Recombinant HDAC µSPOT microarray binding assay;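 for Bottom (dose-response curve fit): peptide spots on cellulose slides incubated with rising HDAC enzyme concentrations, imaged together, four-parameter logistic fit, EC50 is enzyme concentration giving half-maximal binding signal, two experiments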;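 for Bottom (dose-response fit): relative spot intensity from the six enzyme-concentration slides imaged together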;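 for Bottom (dose-response fit): slides with spotted peptides incubated with six HDAC concentrations in HEPES buffer pH 7.4, spot intensities fitted by four-parameter logistic, EC50 as enzyme concentration giving half-maximal binding signal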;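 for LogEC50 (M): peptide spots on cellulose slides incubated with rising HDAC enzyme concentrations, imaged together, four-parameter logistic fit, EC50 is enzyme concentration giving half-maximal binding signal, two experiments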;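 for Top (dose-response curve fit): peptide spots on cellulose slides incubated with rising HDAC enzyme concentrations, imaged together, four-parameter logistic fit, EC50 is enzyme concentration giving half-maximal binding signal, two experiments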;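 for Top (dose-response fit): relative spot intensity from the six enzyme-concentration slides imaged together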;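 for Top (dose-response fit): slides with spotted peptides incubated with six HDAC concentrations in HEPES buffer pH 7.4, spot intensities fitted by four-parameter logistic, EC50 as enzyme concentration giving half-maximal binding signal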
HDAC1 = target: T1, HDAC1 (Homo sapiens, UniProt Q13547); settings: µSPOT microarray; for Bottom (dose-response fit): fitted bottom plateau of the binding curve; for Top (dose-response fit): fitted top plateau of the binding curve;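 for Bottom (dose-response fit): relative spot intensity from the six enzyme-concentration slides imaged together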;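 for Top (dose-response fit): relative spot intensity from the six enzyme-concentration slides imaged together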;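 for all read-outs here: slides with spotted peptides incubated with six HDAC concentrations in HEPES buffer pH 7.4, spot intensities fitted by four-parameter logistic, EC50 as enzyme concentration giving half-maximal binding signal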
T1 construct: HDAC1 (full length, C-terminal His tag, C-terminal FLAG tag, BPS Bioscience, cat. #: 50051); FLAG (C); purchased BPS Bioscience 50051
T1 sequence (Q13547 whole entry): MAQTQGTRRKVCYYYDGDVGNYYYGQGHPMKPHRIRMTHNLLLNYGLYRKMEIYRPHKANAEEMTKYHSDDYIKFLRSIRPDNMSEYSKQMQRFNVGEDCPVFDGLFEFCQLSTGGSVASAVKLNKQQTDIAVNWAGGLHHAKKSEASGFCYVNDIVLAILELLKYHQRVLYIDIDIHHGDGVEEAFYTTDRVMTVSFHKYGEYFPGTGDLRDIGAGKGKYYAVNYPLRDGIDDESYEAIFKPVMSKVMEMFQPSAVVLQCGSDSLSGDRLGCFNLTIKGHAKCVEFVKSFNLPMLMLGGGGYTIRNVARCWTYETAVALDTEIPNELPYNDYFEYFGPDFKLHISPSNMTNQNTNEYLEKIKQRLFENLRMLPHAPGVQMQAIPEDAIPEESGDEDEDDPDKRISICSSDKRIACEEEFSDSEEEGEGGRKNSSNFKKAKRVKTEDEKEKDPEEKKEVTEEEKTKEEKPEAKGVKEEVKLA

HDAC2 = target: T2, HDAC2 (Homo sapiens, UniProt Q92769); settings: for Bottom (Value) / Top (Value) / HillSlope (Value): HDAC2 microarray dose-response curve fit, X = Asuha, sheet Fig. 3 HDAC2; for Bottom (Value): bottom plateau; for Top (Value): top plateau; for Bottom / HillSlope / Top: dose-response fit parameter, µSPOT microarray, H4 K12X (X = Asuha) peptides, HDAC2;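 for all read-outs here: Cellulose-bound peptide spots on slides incubated with six HDAC enzyme concentrations, binding intensity read, four-parameter variable-slope fit, EC50 is enzyme concentration giving half-maximal binding, in HEPES buffer pH 7.4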
T2 construct: HDAC2 (full length, C-terminal His tag, BPS Bioscience, cat. #: 50002); purchased BPS Bioscience 50002
T2 sequence (Q92769 whole entry): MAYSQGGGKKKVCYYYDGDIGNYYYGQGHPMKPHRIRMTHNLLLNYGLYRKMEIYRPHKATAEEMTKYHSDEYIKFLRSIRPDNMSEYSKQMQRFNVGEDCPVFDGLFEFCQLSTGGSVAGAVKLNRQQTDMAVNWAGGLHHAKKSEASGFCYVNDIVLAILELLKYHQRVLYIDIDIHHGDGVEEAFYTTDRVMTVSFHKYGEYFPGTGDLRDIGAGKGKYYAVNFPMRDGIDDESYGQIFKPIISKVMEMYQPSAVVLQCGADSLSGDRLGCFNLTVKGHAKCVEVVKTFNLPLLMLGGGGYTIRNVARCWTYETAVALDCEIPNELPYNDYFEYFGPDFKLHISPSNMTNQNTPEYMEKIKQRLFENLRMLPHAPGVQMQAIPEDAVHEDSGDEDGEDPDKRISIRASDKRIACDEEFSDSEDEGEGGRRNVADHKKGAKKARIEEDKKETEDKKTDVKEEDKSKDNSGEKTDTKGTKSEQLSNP
Procedure: Experiments were performed twice, data were obtained with Array Analyze software (Active Motif), and data analysis and representation were performed with the GraphPad Prism 7 software. Outliers were curated manually and data were fitted to nonlinear regression [log(agonist) vs. response—variable slope (four parameters)]. […] Non-sigmoidal curves were denoted as not determined (N.D.) The pEC50 values were determined as the concentration of HDAC enzyme required for half-maximal binding signal.

HDAC3/NCoR2 = target: T3, HDAC3/NCoR2 (Homo sapiens, UniProt O15379); settings: for Bottom (dose-response curve fit): fitted bottom plateau of binding signal; for Top (dose-response curve fit): fitted top plateau of binding signal; for LogEC50 (M): log of EC50 in M, dose-response fit;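 for all read-outs here: peptide spots on cellulose slides incubated with rising HDAC enzyme concentrations, imaged together, four-parameter logistic fit, EC50 is enzyme concentration giving half-maximal binding signal, two experiments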
T3 construct: HDAC3/NCoR2 (full length, C-terminal His tag, NCoR2 N-terminal GST tag); purchased BPS Bioscience 50003
T3 sequence (O15379 whole entry): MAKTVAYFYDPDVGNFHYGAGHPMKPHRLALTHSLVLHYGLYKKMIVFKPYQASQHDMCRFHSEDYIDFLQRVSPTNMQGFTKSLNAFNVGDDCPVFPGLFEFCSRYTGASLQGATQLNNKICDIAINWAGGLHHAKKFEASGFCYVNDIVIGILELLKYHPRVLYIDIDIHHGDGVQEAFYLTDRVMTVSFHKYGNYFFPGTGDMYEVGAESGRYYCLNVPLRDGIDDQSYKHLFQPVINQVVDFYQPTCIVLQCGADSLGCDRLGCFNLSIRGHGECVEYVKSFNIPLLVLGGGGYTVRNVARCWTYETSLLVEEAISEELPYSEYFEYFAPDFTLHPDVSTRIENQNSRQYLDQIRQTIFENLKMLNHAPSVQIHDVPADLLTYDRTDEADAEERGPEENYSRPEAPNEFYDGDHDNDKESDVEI
T3 sequence (Q9Y618 389-480 partner limits assumed): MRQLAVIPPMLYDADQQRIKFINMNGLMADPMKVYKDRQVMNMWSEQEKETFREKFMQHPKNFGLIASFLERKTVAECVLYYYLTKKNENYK

HDAC8 = target: T4, HDAC8 (Homo sapiens, UniProt Q9BY41); settings: for HillSlope (Value): Hill slope of the µSPOT microarray dose-response fit; for HillSlope (Value) / Bottom (Value) / Top (Value): X = Asuha peptides; for Bottom (Value): fitted bottom of the µSPOT microarray dose-response curve; for Top (Value): fitted top of the µSPOT microarray dose-response curve;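 for all read-outs here: peptide µSPOT slides incubated with varying HDAC enzyme concentrations, imaged signal intensity fitted by four-parameter variable-slope regression, EC50 is enzyme concentration giving half-maximal binding, pH 7.4 HEPES buffer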
T4 construct: HDAC8 (full length, C-terminal His tag, BPS Bioscience, cat. #: 50008); purchased BPS Bioscience 50008
T4 sequence (Q9BY41 1-377): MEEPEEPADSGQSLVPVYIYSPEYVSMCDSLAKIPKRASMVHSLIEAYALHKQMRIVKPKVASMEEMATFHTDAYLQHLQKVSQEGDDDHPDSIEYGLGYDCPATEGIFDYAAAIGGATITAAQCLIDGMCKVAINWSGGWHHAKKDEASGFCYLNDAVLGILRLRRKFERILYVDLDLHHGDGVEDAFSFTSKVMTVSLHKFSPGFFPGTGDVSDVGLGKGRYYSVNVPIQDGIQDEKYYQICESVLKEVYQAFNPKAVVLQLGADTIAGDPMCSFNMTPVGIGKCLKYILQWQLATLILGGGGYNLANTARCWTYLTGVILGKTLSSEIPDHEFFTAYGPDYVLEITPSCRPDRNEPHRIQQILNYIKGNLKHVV

[1] = recombinant HDAC1, Fig. 3, X = Asuha, Hill slope of the binding curve
[2] = recombinant HDAC1, Fig. 3, X = Asuha
[3] = HDAC3 µSPOT microarray, Fig. 3, Hill slope of dose-response fit, X = Asuha
[4] = HDAC3 µSPOT microarray, Fig. 3, X = Asuha
[5] = HDAC8 µSPOT microarray dose-response fit, Bottom Value, X = Asuha, sheet Fig. 3 HDAC8
[6] = HDAC8 µSPOT microarray dose-response fit, HillSlope Value, X = Asuha, sheet Fig. 3 HDAC8
[7] = HDAC8 µSPOT microarray dose-response fit, Top Value, X = Asuha, sheet Fig. 3 HDAC8
[8] = dose-response fit parameter, H4 K12X (X = Asuha) peptides, HDAC1
[9] = dose-response fit parameter, µSPOT microarray, H4 K12X (X = Asuha) peptides, HDAC3
[10] = µSPOT microarray, H4 K12X (X = Asuha) peptides, HDAC3
[11] = dose-response fit parameter, µSPOT microarray, H4 K12X (X = Asuha) peptides, HDAC8

Row | HillSlope (HDAC1; [1]) | Bottom (dose-response fit) (HDAC1; [2]) | Top (dose-response fit) (HDAC1; [2]) | Bottom (Value) (HDAC2) | Top (Value) (HDAC2) | HillSlope (Value) (HDAC2) | HillSlope (HDAC3/NCoR2; [3]) | Bottom (dose-response curve fit) (HDAC3/NCoR2; [4]) | Top (dose-response curve fit) (HDAC3/NCoR2; [4]) | Bottom (HDAC8; [5]) | HillSlope (HDAC8; [6]) | Bottom (HDAC1; [8]) | HillSlope (HDAC1; [8]) | Top (HDAC1; [8]) | Bottom (HDAC2) | HillSlope (HDAC2) | Top (HDAC2) | Bottom (HDAC3/NCoR2; [9]) | HillSlope (HDAC3/NCoR2; [9]) | Top (HDAC3/NCoR2; [9]) | Substance | further results
1 | 1.35 | 0.04 | 1.07 | 0.03 | 44.03 | 0.48 | 1.45 | 0.01 | 0.55 | 0.04 | 6.48 | – | – | – | – | – | – | – | – | – | H2B 91-106 (SREIQTAVRLLLPGEL; UniProt P62807 92-107, looked up, fragment) | Top (HDAC8; [7]): 0.09
2 | – | – | – | – | – | – | – | – | – | – | – | 0.02 | 0.73 | 0.36 | 0.01 | 8.37 | 0.04 | -0.01 | 0.48 | 24.94 | P13 (GLG[Asuha″]GGA) | HillSlope (Value) (HDAC8): 17.49; Bottom (Value) (HDAC8): 0.01; Top (Value) (HDAC8): 0.03

Further lines, the substance ahead of its results:

Row | Substance | HillSlope (HDAC1; [1]) | Bottom (dose-response fit) (HDAC1; [2]) | Top (dose-response fit) (HDAC1; [2]) | Bottom (Value) (HDAC2) | Top (Value) (HDAC2) | HillSlope (Value) (HDAC2) | HillSlope (HDAC3/NCoR2; [3]) | Bottom (dose-response curve fit) (HDAC3/NCoR2; [4]) | Top (dose-response curve fit) (HDAC3/NCoR2; [4]) | Bottom (HDAC8; [5]) | HillSlope (HDAC8; [6]) | Bottom (HDAC1; [8]) | HillSlope (HDAC1; [8]) | Top (HDAC1; [8]) | Bottom (HDAC2) | HillSlope (HDAC2) | Top (HDAC2) | Bottom (HDAC3/NCoR2; [9]) | HillSlope (HDAC3/NCoR2; [9]) | Top (HDAC3/NCoR2; [9]) | further results
3 | H2B 67-82 (NDIFERIAGEASRLAH; UniProt P06899 68-83, looked up, fragment) | 1.51 | 0.04 | 1.04 | 0.02 | 6.33 | 0.44 | 1.68 | 0.01 | 0.39 | 0.03 | 0.69 | – | – | – | – | – | – | – | – | – | Top (HDAC8; [7]): 4.21
4 | P10 (KGLG[Asuha]GGAK) | – | – | – | – | – | – | – | – | – | – | – | 0.02 | 0.6 | 1.69 | 0.03 | 1.44 | 0.39 | 0.06 | 4.03 | 0.95 | LogEC50 (M) (HDAC3/NCoR2; [10]): -8.87 M; Bottom (HDAC8; [11]): 0.03; HillSlope (HDAC8; [11]): 10.49; Top (HDAC8; [11]): 0.13
5 | P12 (KGLGXGGA; K12 replaced by Asuha (X)) | – | – | – | – | – | – | – | – | – | – | – | 0.01 | 0.67 | 0.47 | 0.02 | 7.89 | 0.14 | 0.04 | 2.48 | 0.98 | LogEC50 (M) (HDAC3/NCoR2; [10]): -8.71 M; HillSlope (Value) (HDAC8): 1.3; Bottom (Value) (HDAC8): 0.02; Top (Value) (HDAC8): 0.58
